Patent publication US7943569B2, “Composition and method for providing localized delivery of a therapeutic agent” (The Board of Trustees of the University of Illinois, priority 2005, dated 2011)
Where two headings read alike, the source gives them in different places. Primed or numbered codes have the meaning given here. Ends that are not written are not given here. * marks the point of attachment. fluorescein = Lys* = fluorescein containing lysine; fluorescein″ = fluorescein-labelled lysine (Lys*)

Experiments:
[1] = tested on: malignant glioma cell line (U-87MG); assay: Cell viability of U-87MG glioma cells, modified MTT assay, 24 hours; format: cell-based; details: U-87MG cell viability (FIG. 1)
Description: As a model for cancer, the malignant glioma cell line (U-87MG, ATCC #HTB-14) was grown and maintained in Eagles Minimum Essential Media with 10% fetal bovine serum, 1% penicillin/streptomycin, sodium pyruvate (110 mg/L), L-Glutamine (292 mg/L), and nonessential amino acids at 37° C. in 5% CO2. One day prior to the test, cells were plated at 50,000 cells/mL in supplemented media on 96-well plates. Peptides at different concentrations were incubated with cells for 24 hours. Cell viability, with respect to the untreated control, was determined using a modified MTT assay (CELL TITER […] 96® Aqueous One Solution Cell Proliferation Assay; PROMEGA, Madison, Wis.) (Barltrop, et al. (1991) Bioorg. Med. Chem. Lett. 1:661).
To synthesize Pt-complexes, peptides were dissolved in water and equimolar amounts of potassium tetrachloroplatinate (K2PtCl4) (Acros Organics, Morris Plains, N.J.) were added to each peptide solution. The solutions were stirred for 20 hours and lyophilized.

MMP-2 [2] = target: T1, MMP-2 (Homo sapiens, UniProt P08253); details: MMP-2, Turk et al. (2001); cited from earlier work
T1 construct: purchased CALBIOCHEM (San Diego, Calif.)
T1 sequence (P08253 110-660): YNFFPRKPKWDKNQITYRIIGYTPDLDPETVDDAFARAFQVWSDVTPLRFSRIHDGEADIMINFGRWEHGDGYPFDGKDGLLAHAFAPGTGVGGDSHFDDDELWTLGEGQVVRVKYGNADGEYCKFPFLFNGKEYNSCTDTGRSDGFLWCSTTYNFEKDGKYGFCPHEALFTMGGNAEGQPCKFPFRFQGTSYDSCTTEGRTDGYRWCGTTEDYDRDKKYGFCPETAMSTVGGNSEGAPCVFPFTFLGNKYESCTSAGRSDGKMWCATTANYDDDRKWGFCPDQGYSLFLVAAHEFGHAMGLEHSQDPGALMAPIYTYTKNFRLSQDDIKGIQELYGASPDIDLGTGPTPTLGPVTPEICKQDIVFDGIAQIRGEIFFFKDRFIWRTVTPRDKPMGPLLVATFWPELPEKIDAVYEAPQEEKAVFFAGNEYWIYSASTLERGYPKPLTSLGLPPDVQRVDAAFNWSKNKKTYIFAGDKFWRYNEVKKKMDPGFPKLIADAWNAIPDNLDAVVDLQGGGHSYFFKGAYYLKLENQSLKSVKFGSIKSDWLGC

MMP-2 [3] = target: T1, MMP-2; assay: Peptide cleavage by activated MMP-2, HPLC; format: biochemical; details: for Km / Vmax / kcat: MMP-2 10 nM, protease buffer pH 7.4
Description: (§1) Prospective MMP substrate peptides, Lys*-Pro-Ala-Gly-Leu-Leu-Gly-Cys (SEQ ID NO:2), Lys*-Ala-Gly-Leu-Leu-Cys (SEQ ID NO:32), and Lys*-Gly-Leu-Cys (SEQ ID NO:33), were dissolved in a protease buffer containing Tris-HCl (50 mM), NaCl (0.2 M), CaCl2.2H2O (10 mM), BRIJ-35 (0.05%) and ZnSO4.7H2O (50 μM) (pH=7.4). Activated MMP-2 or MMP-9 was added to the peptide solution at a final concentration of 10 nM. At predetermined time intervals, the reaction was stopped by adding EDTA solution (25 mM). Samples were analyzed using reverse phase high pressure liquid chromatography (HPLC). The HPLC system was composed of a gradient pump connected to a scanning fluorescence detector and a photodiode array detector. Peptides were separated on a ZORBAX Extend-C18 (80 Å, 3.6 μm, 4.6 mm×150 mm) column (Agilent Technologies, Palo Alto, Calif.) using a gradient of 30%-70% of 0.1% trifluoroacetic acid in acetonitrile against 0.1% trifluoroacetic acid in water over a period of 15 minutes at a flow rate of 1 mL/minute. The expected cleaved fragments, Lys*-Pro-Ala-Gly (SEQ ID NO:34), Lys*-Ala-Gly, and Lys*-Gly, were synthesized to confirm HPLC retention times. The HPLC retention time of each fragment was compared to that of the cleaved fragment and the intact peptide using the HPLC conditions described above.

MMP-9 = target: T2, MMP-9 (Homo sapiens, UniProt P14780); assay: Peptide cleavage by activated MMP-9, HPLC; format: biochemical; details: for Km / Vmax / kcat: MMP-9 10 nM, protease buffer pH 7.4
T2 construct: purchased CALBIOCHEM (San Diego, Calif.)
Description: as §1

T2 sequence (P14780 107-707 limits assumed): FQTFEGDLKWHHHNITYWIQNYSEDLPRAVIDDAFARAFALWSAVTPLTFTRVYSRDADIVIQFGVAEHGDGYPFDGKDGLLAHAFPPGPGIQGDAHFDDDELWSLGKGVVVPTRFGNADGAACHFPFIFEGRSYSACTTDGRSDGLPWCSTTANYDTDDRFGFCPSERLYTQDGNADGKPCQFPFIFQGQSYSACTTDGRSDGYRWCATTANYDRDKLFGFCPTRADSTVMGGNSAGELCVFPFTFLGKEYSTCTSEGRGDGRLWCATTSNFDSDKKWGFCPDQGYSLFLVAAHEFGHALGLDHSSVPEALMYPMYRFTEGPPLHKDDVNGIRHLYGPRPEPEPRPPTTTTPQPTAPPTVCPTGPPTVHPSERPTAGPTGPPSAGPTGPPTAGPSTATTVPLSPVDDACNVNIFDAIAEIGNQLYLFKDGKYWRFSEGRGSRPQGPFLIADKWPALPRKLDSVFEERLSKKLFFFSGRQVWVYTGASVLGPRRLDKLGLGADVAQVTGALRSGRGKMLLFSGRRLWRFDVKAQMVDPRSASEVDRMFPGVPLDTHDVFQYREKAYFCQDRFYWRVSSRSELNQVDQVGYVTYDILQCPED

Compound | IC50 [1] | cleavage site (MMP-2 [2]) | Km (MMP-2 [3]) | Vmax (MMP-2 [3]) | kcat (MMP-2 [3]) | Km (MMP-9) | Vmax (MMP-9) | kcat (MMP-9) | cleavage site (MMP-2 [3]; cleaved by MMP-2, HPLC comparison with synthesized fragment) | cleavage site (MMP-9; cleaved by MMP-9, HPLC comparison with synthesized fragment)
[Cl][Pt-2]([Cl])([Cl])[Cl].[K+].[K+] [K2PtCl4, potassium tetrachloroplatinate] | 70.7 ± 15 µM |  |  |  |  |  |  |  |  | 
N.N.[Cl][Pt][Cl] [cisplatin] | 46.9 ± 15 µM |  |  |  |  |  |  |  |  | 
GPAGLLG [parent peptide from which the three peptides were designed] |  | cleaved between glycine and leucine |  |  |  |  |  |  |  | 
Lys*-Ala-Gly-Leu-Leu-Cys (K(fluorescein)AGLLC) [prospective MMP substrate peptide with fluorescein containing lysine (Lys*)] |  |  | 1.4 ± 0.4 mM | 6.02 ± 2.1 (M/s) × 10^−9 | 0.24 ± 0.08 s⁻¹ | 160 ± 100 µM | 0.99 ± 0.2 (M/s) × 10^−9 | 0.04 ± 0.01 s⁻¹ |  | 
Lys*-Gly-Leu-Cys (K(fluorescein″)GLC) [prospective MMP substrate peptide with fluorescein containing lysine (Lys*)] |  |  | 0.081 ± 0.02 mM | 0.88 ± 0.1 (M/s) × 10^−9 | 0.035 ± 0.006 s⁻¹ | 600 ± 100 µM | 5.3 ± 1 (M/s) × 10^−9 | 0.21 ± 0.04 s⁻¹ |  | 
Lys*-Pro-Ala-Gly-Leu-Leu-Gly-Cys (K(fluorescein)PAGLLGC) [prospective MMP substrate peptide with fluorescein containing lysine (Lys*)] |  |  | 1 ± 0.5 mM | 270 ± 120 (M/s) × 10^−9 | 10.7 ± 4.8 s⁻¹ | 400 ± 100 µM | 240 ± 50 (M/s) × 10^−9 | 9.6 ± 2.1 s⁻¹ | cleaved between glycine and leucine | cleaved between glycine and leucine
